Measurements reported in publication PMC12541693.

What was measured:
Assay in all cases: potentiometry
Settings in all cases: 298.2 K; 0.1 M KCl; none (unbuffered, KCl background); metal-free (apo) peptide
Asp11 (position 11, …-) = biological target: Asp11 (position 11, …-)
[1] = biological target: Lys14 (position 14, MVDAYKG----)
[2] = biological target: Tyr13 (position 13, VMVDAYKG---)
Asp10 (position 10, …-) = biological target: Asp10 (position 10, …-)
[3] = biological target: Lys13 (position 13, MVDAYKG----)
[4] = biological target: Tyr12 (position 12, VMVDAYKG---)

For GWHHAQIVMVDAYKG [Pep2 (bis-histidyl minimal SpyTag peptide with Ala spacer) (synthetic construct (SpyTag-derived))], the pKa (Asp11 (position 11, …-)) was 3.67(5), the pKa [1] was 10.16(5) and the pKa [2] was 9.7(1).

GWHHQIVMVDAYKG [Pep1 (bis-histidyl minimal SpyTag peptide) (synthetic construct (SpyTag-derived))] was tested, and the pKa (Asp10 (position 10, …-)) was 3.65(4), the pKa [3] was 10.10(9) and the pKa [4] was 9.51(7).
